Laboratory results: the nanobody polyreactivity screen of Harvey et al. (2022)

Assay: yeast display, Sf9 membrane polyspecificity reagent, FACS + sequencing; frameworks hold sequencing errors
Outline: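 After 36–48 hours of galactose induction, yeast (Saccharomyces cerevisiae BJ5465) displaying a synthetic nanobody library were stained at 4 °C for 1 hour with 10% biotinylated, detergent-solubilized Sf9 membrane reagent. Streptavidin microbeads enriched the stained cells before FACS sorting into low and high (top ~1%) gates on anti-HA and streptavidin fluorescence. Each clone's polyreactivity label reflects its gate of origin.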

Sequence | polyreactivity (PSR sort gate)
QVQLVESGGGLDQAGGSLRLSCAASGRTFKYYAMGWYRQAPGKERELVAAITRSGSTYYADSVKGRFTISRDNAKNTVYLQMNSLKPEDTAVYYGAADVTLYYRGRRYYYWGQGTQVTVSS | high polyreactivity
QVQLVESGGGLVQAGGSLRLSCAASGGIFYNYAMGWYIQAPGKERELVAAITYSGVRTNYADSVKGRFTISRDNAKNTVYLQMNSLKPEDTAVYYCNAAVVYVKMDYWGQGTQVTVSS | low polyreactivity
QVQLVESGGGLVQAGGSLRLSCAASGTFTRNVMGWYRQAPGKERELVAAIDNGSSTNYADSVKGRFTISRDNAKNTVYLQINSQKPEDTAVYYCANERPRSAGSAASIEQQMDYWGQGTQVTVSS | low polyreactivity
QVQLVESGGGLVQAGGSHRLSCAASGNAMGCYRQAPGKERELVAAITYGGTTTYYADSVKGRFTISRDNAKNTVYLQMNSLKPEDTAVYYCAADYVFVATPLRYDYWGQGTQVTVSS | low polyreactivity
QVQLVESGGGLVQAGGSLRLSCAASGITLNRNAMGWYRQAHGKERELVARISRRGGTTYYADSVKGRFTISRDNAKNTVYLQMNSLKPEDTAVYYCNAGPYGGNPFDYWGQGTQVTVSS | high polyreactivity
QVQHEESGGGLVQAGGSLRLSCAASGRIFPVNAMGWSRKAPGKERELLAAITRNGGSTYYADSVKGRFTISRDNAKNTVYLQMNSLKPEDTAVSYCAVRVVYGPAWAKMYYWGQGTQVTVSS | high polyreactivity
QVQLVESGGGLVQAGGSLRLSCAASGFTFSFYAMGWYRQAPGKERELVAGISKRGGSTYYADSVKGRFTISRDNAKKTVFLQMNSLKPEDTAVYYCARSYYTNGNALKRDYWGQGTQVTVSS | high polyreactivity
QVQLVESCGGLVQAGGSLRLSCAASGSIFGYNDMGWYRQAPGKERELVATLTWGGGRTRYADSVKGRFTISRDNAKNTVYLQMNSLIPEDTAVDYCAADKRSYSYVRPPRNHEDYWGQGTQVTVSS | low polyreactivity
QVQLVESGGGLVQAGGSLRLSCAASGITSSTYAMGWYRQAPGKERELVAAISLSGSSTNYADSVKGRFTISRDNAKNTVYLQMNSLKPEDTAVYYCAATNYRTYPYGYWGQGTQVTVSS | high polyreactivity
QVLLVESGGALVQAGGSLRLSCAASGYIFRFYTLRGYRQAPGKERELVAAISAGGSTNSADSVKGRFTISRDNAKNTVYLQMNSLKPEDTAVEYCAARYYSRYYWGQGTQVTVSS | low polyreactivity
QVQLVESGGGLVQAGGSLRLICPASGSTFQYYAMGWYRQAPGKEREFVAAIRSSGGTTYYADSVKGRFTISRDNAKKTVYLQMNSLKPEDTAVYYCATVVNYPSARYCYWGQGTKVTVSS | high polyreactivity
QVQLIESGGGLVKAGGSLRLSCAASGSIFYRNTMGWYRQAPGKERELVARISWSGGRTYYADSVKGRFTISRDNAKNTVYLQMNSLKPEDTAVYYCAASTYGQRGTSYGYWGQGTQVTVSS | low polyreactivity
QVQLVESGGGLVQAGGSLRLSCAASGRTFPSNAMGWYRQAPGKEREFVASITYSGGRTYYADSVKGRFTISRDNAKNTVYLQMNSLKPEDTAVYYCATARYRYHYYSWGQGTQVTVSS | high polyreactivity
QVQHVESGGGLVQAGRSLRLSCAASGFTIVQYAMGWYRQAPGKERELVARISPIGGSTYYADSVKGRFTISRDNAKNTVYLQMNSLKPEDTAVYYCNALRGPVKYYYWGQGTQVTVSS | low polyreactivity
QVQLVESGGGLVQAGGSLRLSCAASGRIFKPNAMGWYRQAPGKERELVASITSRGTSTYYADSVKGRFTISRDNAKNTVYLQMNSLKPEDTAVYYCAARPIHYPPYYYWGQGTQVTVSS | high polyreactivity
QVQLVESGGGLVQAGGSLRLSCAASGSIFNIYAMGWYRQAPGKERELVAAIRWTGGSTYYADSVKGRFTISRDNAKNTVYLQMHSLKPEDTALYYSAARTSRGGHYYWGHGTQVTVSS | high polyreactivity
QVQLVESGGGLVQAGGSLRLSCAASGRIFIYYTMGWYRQAPGKEREFVAAITYSGGSTRYADSVKGRFTISRDNAKNTVYLQMNSLKPEDTAVYYCAAKFSVRRGFDYWGQGTQVTVSS | low polyreactivity
QVQLVDSAGGLVHAGGSLRLSCAASGLTFYSNTMGWYRPPPGKERELVAGISWGGDTTYYADSVKGRFTISRDNAKNTVYLQMNSLKPEDTAVYYCAADRSYWRHRYSYDYWGQGTQVTVSS | low polyreactivity
QVQLVESGGGLVQAGGSLRLSSAASGRIFPYYAMGWYRQAPGKERELVAAITSSGGSTYYADSVKGRFTISRDTAKNTVYFQMNSLKPEDSAVYYCAGTSPYDDYPYTRGIYAYGYWGQCTQVTVSS | low polyreactivity
QVQLVESGGGLVQAGGSLRLSCAASGGTFSTNTMGWYRQAPGKEMELVAAITEGTGNTYYADSVKGRFTISRDTAKNTVYLQMNSLKPEDTAVYDCATVAYSGSDFSGSAGAGDYWGQGTQVTVSS | low polyreactivity
QVQLVESGGGLVQAGGSLRLICAASGGTFQSNAMGWYRQAPGKERELVASITSRGSSTYYADSVKGRFTISRDNAKNTVYLLMNSLKPEDTAVYYCAKGRSWQIYYKGGIKGGYWGQGTQVTVSS | low polyreactivity

Sequence | polyreactivity (PSR sort gate)
QVQLVESGGGLVQAGGSLRLSCAASGFTSEYNAMGWYRQAPGNERELVAAITSGGSTYYADSVEGRFTISRDNAKNTVYLQMNSLKPEDTAVDYCAADYYVWGYLLEYGGQGTQVTVSS | high polyreactivity
QFQHVESGGGLDQARGRLRLSCAASGYTFAKYTMGSYRQAPGKERELVAAISRGGSTTYADSVKGRFTISRDNAKNTVYLQMNSLKPEDTAVYDCAASGTKREDGYSLGYPRAGDYWGQGTQVTVSS | low polyreactivity
QVQLVESGGGLVQAGGSLRLSWAASGSIFFFNAMGWYRQAPGKEREFVAAITSSSGRTYYADSVKGRFTISRDNAKNTVYLQMNRLKPEDTAVYYCAAQVPEDTETVDYWGQGTQVTVSS | low polyreactivity
QVQLVESGGGLVQAGGSLRLSCAASGSIFPFNAMGWYRQAPGKERELVAAISRRGTGTYYADSVKGRFTISRDNAKNTVYLQMNSLKPEDTAVYYCNAVVRAGHYDYWGQGTQVTLSS | high polyreactivity
QVQLVESGGGLVQAGGSLRLSSAASGSTFVTYAMGWYRQAPGKERELVAAISRRGGSTYYADSVKGRFTISRDNAKNTVYLQMNCLKPEDTAVYYCAPVQGSYSRDGADDYWGQGTQVTVSS | high polyreactivity
QVQLVESGGGIVQAGGSLRVSCAASGSIFLDNAMGWYRQAPGKERELVADISYSGGSTYYADSVKGRFTISRDNAKNTVYLQMNSLKPEDTAVYYCAAGVQLTVPPLRSSVTEYDYWGQGTQVTVSS | low polyreactivity
QVQLVESGGGLVQAGGSLRLSCAASGLTFQYNAMGWYRQAPGKERELVAVISWSGGSTYYADSVKGRFTISRDNAMNTVYLQMNSLIPEDTAVYYCNAVGFVWYFDVYSYFTEFKYDYWGQGTQVTVSS | low polyreactivity
QVQLVESGGGLVQAGGSLRLSCAASGRIFYYYAMGWYRQAPGKERELVAGIDSGDSTNYADSVKGRFTISRDNAKNTVYLQLNSLKPEDTAVYYCAALHYGGYFSYYPYYYWGQGTQVTVSS | low polyreactivity
QVQLVESGGGLVQAGGSLRLSCAASGTTSPNAMGWYRQAPGKERELVAAMWSGGTYYADSVKGRFTISRDNAKNTVYLQMNSLKPEDTAVYYCAADGEFRRAWYEGDYWGQGTQVTVSS | low polyreactivity
QVQLVESGGGLVQAGGSLRLRCAASGFIFSAYAMGWYSQAPGKERELVAGITKSVGRTTYADSVKGRFTIARDNAKNTVYLQMNSLKPEDTAVYYCNARRSYTYRIFGMDYWGQGTQVTVSS | high polyreactivity
QVQLVESGGGLVQAGGSLRLSCAASGRIFSHYAMGWYRQAPGKERELVAAINRSGGSTYYADSVKGRFTISRDNAKNTVYLQMNSLKPEDTAVYYCAADVKYGYDWGQGTQVTVSS | high polyreactivity
QVQLVESGGGLVQAGGSLRLSCAASGSIIGGYAMGWYRQAPGKERELVAAITRSGGRTYYADSVKGRFTISRDNAKNTVYLQMNSLKPEDTAVYYCNADRRRRFGYWGQGTQVTVSS | high polyreactivity
QVQLVESGGGLVQAGGSLRLSCAASGRTSIYNAMGWYRQAPGKDREFVAAITSSGGSTYYADSVKGRFTISRDNAKNTVYLQMNSLKPEDTAVYYCAARPAYVYAYYRYGYWGQGTQVTVSS | high polyreactivity
QVQLVESGGGLVQAGGSLRLSSAASGSIFKINAMGWYRQAPGKETELVATITWSTGTTYYADSVKGRFTISRDNAKNTVYLQMNSLKPEDTAVYYCATDGDSTKLDYWGQVTQVTVSS | low polyreactivity
QDQLVESAGGLVQAGGSLRLSCAASGRIFVFNAMGWYIQAPGKERELVAGINRGASTYYADSVKGRFTISRDNAKNTVYFQMNSLKPEDTAVYYCAADNFWWTKLYYWGQGTQVTVSS | high polyreactivity
QVQLVESGGGLVQAGGSLRLSCAASGSIFASNAMGWYRQAPGKERGLVAAITYNGGSTYYADSVKGRFTISRDNAKNTVYLQMNSLKPEDTAVYYCAALGTRRPHIPRGDYWGQGTQVTVSS | low polyreactivity
QVQLVESGGGIVQAGGSLRISSSASGRIITAYAMGWYRQAPGKERELVAAITRSTTYYADSVKGRFTISRDNAKFSVDLQLHSLKPDDTAVFYCAADYRGTWYGYDYWGQGTHVTVSS | high polyreactivity
QVQLVDSGGGLVQAGGSLGLSCAASGRSFTFNAMGWYRQAPGKERELVAAISSRGDGTYYADSVKGRFTISRDNAKNNVYLQMNSLKPEDTAVYYCARYPDDYYDWGYDYWGQGTQVTVSS | low polyreactivity
QDLLVDSGGGLVQAGGSLRVSCAASGYTRFYAMGWYRQAPGKERELVAAISSSGGTTYYADSVKGRFTISRDNAKNNVYLQMNSLKPEDTAVYYCAKFLSYSRTLYDYWGQGTQVTVSS | high polyreactivity
QVQLVESGGGLVQAGGSLRLSCAASGRIFAWYTMGWYRQAPGKERELVAAISWNGGRTYYADSVKGRFTISRDNAKNTVYLQMNSLKPEDTAVYYCNADWYWRVYWGQGTQVTVSS | high polyreactivity
